Laboratory results taken from publication PMC2691817 (Nucleic Acids Research, 2009).

Columns and labels:
SeqAΔ(41-59)-A25R = target: T1, SeqAΔ(41-59)-A25R (Escherichia coli, UniProt P0AFY8 1-181, A25R;del41-59); assay: EMSA
T1 sequence: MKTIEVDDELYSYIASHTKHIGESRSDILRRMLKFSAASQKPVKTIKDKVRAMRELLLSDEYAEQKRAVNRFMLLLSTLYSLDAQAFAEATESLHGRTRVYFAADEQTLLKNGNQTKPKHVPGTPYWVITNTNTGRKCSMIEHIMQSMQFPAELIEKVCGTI

SEC = target: the molecule itself; assay: SEC

B1: hemimethylated tandem GATC duplex (crystallization oligonucleotide) (dsDNA)
DNA 1: GAGTCGATCGGCGGGATCCTTA
DNA 2: TCTAAGGATCCCGCCGATCGAC
modifications: N6-methyladenine at positions 7 and 16 of strand 1; strand 2 unmethylated
SeqAΔ(41-59)-A25R
  Kd: ~90 nM

B2: SeqAΔ(41–59)-A25R (natural protein, E. coli, UniProt P0AFY8 1-181, looked up)
chain: MKTIEVDDELYSYIASHTKHIGESRSDILRRMLKFSAASQKPVKTIKDKVRAMRELLLSDEYAEQKRAVNRFMLLLSTLYSLDAQAFAEATESLHGRTRVYFAADEQTLLKNGNQTKPKHVPGTPYWVITNTNTGRKCSMIEHIMQSMQFPAELIEKVCGTI
SEC
  stoichiometry N: 2

B3: SeqA-A25R (natural protein, E. coli, UniProt P0AFY8 1-181, looked up)
chain: MKTIEVDDELYSYIASHTKHIGESRSDILRRMLKFSAASQPAAPVTKEVRVASPAIVEAKPVKTIKDKVRAMRELLLSDEYAEQKRAVNRFMLLLSTLYSLDAQAFAEATESLHGRTRVYFAADEQTLLKNGNQTKPKHVPGTPYWVITNTNTGRKCSMIEHIMQSMQFPAELIEKVCGTI
SEC
  binding result: binds
